Experimental data as given in patent publication US20030203464.

Biological target: Rac1 (UniProt P63000)

| Substance | GEF activity (32P-GTP bound to the GTPase, filter assay), with and without ascorbyl stearate | GEF activity (32P-GTP bound to the GTPase, filter assay), with ascorbyl stearate | GEF activity (32P-GTP bound to the GTPase, filter assay), without lipid |
| --- | --- | --- | --- |
| 135 kD Tiam-1 | shows weak GEF activity towards Rac in the absence of AS, but is still greatly stimulated by AS | – | – |
| 106 kD Tiam-1 | – | Other truncations of Tiam-1, all containing the DH and PH domains (FIG. 3), also exhibited AS stimulated GEF activity on Rac 1 | – |
| 85 kD Tiam-1 | – | ascorbyl stearate (AS) stimulated the rate of Tiam-1-mediated nucleotide exchange on Rac 1 | this truncation alone, at various concentrations, exhibited no GEF activity towards Rac 1 |
| 66 kD Tiam-1 | – | Other truncations of Tiam-1, all containing the DH and PH domains (FIG. 3), also exhibited AS stimulated GEF activity on Rac 1 | – |
